In patent publication US7727950 one finds Km data, which are given here for nine proteins.

Bounds are passed on as bounds.

For series [1], the target named is T1, generic peptide substrate RRRLSFAEPG
T1 chain: RRRLSFAEPG

Series [2] addresses T2, standard peptide substrate KEAKEKRQEQIAKRRRLSSLRASTSKSGGSQK
T2 chain: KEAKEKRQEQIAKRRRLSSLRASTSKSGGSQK

The target of series [3] is T3, generic peptide substrate KKLNRTLSFAEPG
T3 chain: KKLNRTLSFAEPG

Series [4] has as its target T4, standard peptide substrate LRRASLG.
T4 chain: LRRASLG

Series [5] deals with T5, generic peptide substrate RARTLSFAEPG
T5 chain: RARTLSFAEPG

Series [6] addresses T6, standard peptide substrate HMRSAMSGLHLVKRR
T6 chain: HMRSAMSGLHLVKRR

The target of series [7] is T7, standard peptide substrate KKLRRTLSVA
T7 chain: KKLRRTLSVA

In series [8] the target is T8, standard peptide substrate KKKVSRSGLYRSPSMPENLNRPR
T8 chain: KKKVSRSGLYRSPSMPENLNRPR

Series [9] addresses T9, standard peptide substrate GRPRTSSFAEG
T9 chain: GRPRTSSFAEG

Series [10] has as its target T10, standard peptide substrate KKLNRTLSVA
T10 chain: KKLNRTLSVA

A word on the Km: it is the substrate concentration at which the rate is half of its maximum.

B1: rat Rho-dependent protein kinase ROCKII[1-543] (protein)
chain: MSRPPPTGKMPGAPEAAAGDGAGAGRQRKLEALIRDPRSPINVESLLDGLNSLVLDLDFPALRKNKNIDNFLNRYEKIVKKIRGLQMKAEDYDVVKVIGRGAFGEVQLVRHKASQKVYAMKLLSKFEMIKRSDSAFFWEERDIMAFANSPWVVQLFCAFQDDRYLYMVMEYMPGGDLVNLMSNYDVPEKWAKFYTAEVVLALDAIHSMGLIHRDVKPDNMLLDKHGHLKLADFGTCMKMDETGMVHCDTAVGTPDYISPEVLKSQGGDGYYGRECDWWSVGVFLFEMLVGDTPFYADSLVGTYSKIMDHKNSLCFPEDTEISKHAKNLICAFLTDREVRLGRNGVEEIKSASFFKNDQWNWDNIRETAAPVVPELSSDIDSSNFDDIEDDKGDVETFPIPKAFVGNQLPFIGFTYFRENLLLSDSPPCRENDAIQTRKSEESQEIQKKLYALEEHLSSEVQAKEELEQKCKSINTRLEKTAKELEEEITFRKNVESTLRQLEREKALLQHKNAEYQRKADHEADKKRNLENDVNSLKDQLEDL
With B1, the figures for the Km in series [1] and in [2] were above 100 µM and 5 µM, respectively.

B2: p70 ribosomal S6 kinase 1 (S6K1[T412E], lacking the C-terminal 104 residues) (protein)
chain: MRRRRRRDGFYPAPDFRDREAEDMAGVFDIDLDQPEDAGSEDELEEGGQLNESMDHGGVGPYELGMEHCEKFEISETSVNRGPEKIRPECFELLRVLGKGGYGKVFQVRKVTGANTGKIFAMKVLKKAMIVRNAKDTAHTKAERNILEEVKHPFIVDLIYAFQTGGKLYLILEYLSGGELFMQLEREGIFMEDTACFYLAEISMALGHLHQKGIIYRDLKPENIMLNHQGHVKLTDFGLCKESIHDGTVTHTFCGTIEYMAPEILMRSGHNRAVDWWSLGALMYDMLTGAPPFTGENRKKTIDKILKCKLNLPPYLTQEARDLLKKLLKRNAASRLGAGPGDAGEVQAHPFFRHINWEELLARKVEPPFKPLLQSEEDVSQFDSKFTRQTPVDSPDDSTLSESANQVFLGFEYVAPSVLES
With B2, the Km in series [3] stood at 6 µM; in series [4], 8 µM.

B3: AMP-activated protein kinase (AMPK) (protein)
chain: MAEKQKHDGRVKIGHYVLGDTLGVGTFGKVKIGEHQLTGHKVAVKILNRQKIRSLDVVGKIKREIQNLKLFRHPHIIKLYQVISTPTDFFMVMEYVSGGELFDYICKHGRVEEVEARRLFQQILSAVDYCHRHMVVHRDLKPENVLLDAQMNAKIADFGLSNMMSDGEFLRTSCGSPNYAAPEVISGRLYAGPEVDIWSCGVILYALLCGTLPFDDEHVPTLFKKIRGGVFYIPEYLNRSIATLLMHMLQVDPLKRATIKDIREHEWFKQDLPSYLFPEDPSYDANVIDDEAVKEVCEKFECTESEVMNSLYSGDPQDQLAVAYHLIIDNRRIMNQASEFYLASSPPTGSFMDDMAMHIPPGLKPHPERMPPLIADSPKARCPLDALNTTKPKSLAVKKAKWHLGIRSQSKPYDIMAEVYRAMKQLDFEWKVVNAYHLRVRRKNPVTGNYVKMSLQLYLVDNRSYLLDFKSIDDEVVEQRSGSSTPQRSCSAAGLHRPRSSVDSSTAENHSLSGSLTGSLTGSTLSSASPRLGSHTMDFFEMCASLITALAR
Regarding B3, the figures for the Km in [5] and in [6] were 75 µM and 80 µM, respectively.

B4: cGMP-dependent protein kinase (PKG) (protein)
chain: SELEEDFAKILMLKEERIKELEKRLSEKEEEIQELKRKLHKCQSVLPVPSTHIGPRTTRAQGISAEPQTYRSFHDLRQAFRKFTKSERSKDLIKEAILDNDFMKNLELSQIQEIVDCMYPVEYGKDSCIIKEGDVGSLVYVMEDGKVEVTKEGVKLCTMGPGKVFGELAILYNCTRTATVKTLVNVKLWAIDRQCFQTIMMRTGLIKHTEYMEFLKSVPTFQSLPEEILSKLADVLEETHYENGEYIIRQGARGDTFFIISKGKVNVTREDSPNEDPVFLRTLGKGDWFGEKALQGEDVRTANVIAAEAVTCLVIDRDSFKHLIGGLDDVSNKAYEDAEAKAKYEAEAAFFANLKLSDFNIIDTLGVGGFGRVELVQLKSEESKTFAMKILKKRHIVDTRQQEHIRSEKQIMQGAHSDFIVRLYRTFKDSKYLYMLMEACLGGELWTILRDRGSFEDSTTRFYTACVVEAFAYLHSKGIIYRDLKPENLILDHRGYAKLVDFGFAKKIGFGKKTWTFCGTPEYVAPEIILNKGHDISADYWSLGILMYELLTGSPPFSGPDPMKTYNIILRGIDMIEFPKKIAKNAANLIKKLCRDNPSERLGNLKNGVKDIQKHKWFEGFNWEGLRKGTLTPPIIPSVASPTDTSNFDSFPEDNDEPPPDDNSGWDIDF
For B4, the Km is 50 µM in series [1] and 5 µM in [2].

B5: p38 regulated/activated kinase (PRAK) (protein)
chain: MSEESDMDKAIKETSILEEYSINWTQKLGAGISGPVRVCVKKSTQERFALKILLDRPKARNEVRLHMMCATHPNIVQIIEVFANSVQFPHESSPRARLLIVMEMMEGGELFHRISQHRHFTEKQASQVTKQIALALRHCHLLNIAHRDLKPENLLFKDNSLDAPVKLCDFGFAKIDQGDLMTPQFTPYYVAPQVLEAQRRHQKEKSGIIPTSPTPYTYNKSCDLWSLGVIIYVMLCGYPPFYSKHHSRTIPKDMRRKIMTGSFEFPEEEWSQISEMAKDVVRKLLKVKPEERLTIEGVLDHPWLNSTEALDNVLPSAQLMMDKAVVAGIQQAHAEQLANMRIQDLKVSLKPLHSVNNPILRKRKLLGTKPKDSVYIHDHENGAEDSNVALEKLRDVIAQCILPQAGKGENEDEKLNEVMQEAWKYNRECKLLRDTLQSFSWNGRGFTDKVDRLKLAEIVKQVIEEQTTSHESQ
With B5, the Km in [5] was 40 µM; in [7], above 100 µM.

B6: Checkpoint Kinase 1 (CHK1) (protein)
chain: MAVPFVEDWDLVQTLGEGAYGEVQLAVNRVTEEAVAVKIVDMKRAVDCPENIKKEICINKMLNHENVVKFYGHRREGNIQYLFLEYCSGGELFDRIEPDIGMPEPDAQRFFHQLMAGVVYLHGIGITHRDIKPENLLLDERDNLKISDFGLATVFRYNNRERLLNKMCGTLPYVAPELLKRREFHAEPVDVWSCGIVLTAMLAGELPWDQPSDSCQEYSDWKEKKTYLNPWKKIDSAPLALLHKILVENPSARITIPDIKKDRWYNKPLKKGAKRPRVTSGGVSESPSGFSKHIQSNLDFSPVNSASSEENVKYSSSQPEPRTGLSLWDTSPSYIDKLVQGISFSQPTCPDHMLLNSQLLGTPGSSQNPWQRLVKRMTRFFTKLDADKSYQCLKETCEKLGYQWKKSCMNQVTISTTDRRNNKLIFKVNLLEMDDKILVDFRLSKGDGLEFKRHFLKIKGKLIDIVSSQKIWLPAT
B6: the Km in [5] and in [8] was 5 µM each time.

B7: serum and glucocorticoid-induced kinase 1 (SGK1[S422D] and lacking the N-terminal 59 residues) (protein)
chain: ISQPQEPELMNANPSPPPSPSQQINLGPSSNPHAKPSDFHFLKVIGKGSFGKVLLARHKAEEVFYAVKVLQKKAILKKKEEKHIMSERNVLLKNVKHPFLVGLHFSFQTADKLYFVLDYINGGELFYHLQRERCFLEPRARFYAAEIASALGYLHSLNIVYRDLKPENILLDSQGHIVLTDFGLCKENIEHNSTTSTFCGTPEYLAPEVLHKQPYDRTVDWWCLGAVLYEMLYGLPPFYSRNTAEMYDNILNKPLQLKPNITNSARHLLEGLLQKDRTKRLGAKDDFMEIKSHVFFSLINWDDLINKKITPPFNPNVSGPNDLRHFDPEFTEEPVPNSIGKSPDSVLVTASVKEAAEAFLGFDYAPPTDSFL
Consider B7, for which the Km in [3] and in series [9] was 4 µM each time.

B8: MAPKAP-K3 (protein)
chain: MDGETAEEQGGPVPPPVAPGGPGLGGAPGGRREPKKYAVTDDYQLSKQVLGLGVNGKVLECFHRRTGQKCALKLLYDSPKARQEVDHHWQASGGPHIVCILDVYENMHHGKRCLLIIMECMEGGELFSRIQERGDQAFTEREAAEIMRDIGTAIQFLHSHNIAHRDVKPENLLYTSKEKDAVLKLTDFGFAKETTQNALQTPCYTPYYVAPEVLGPEKYDKSCDMWSLGVIMYILLCGFPPFYSNTGQAISPGMKRRIRLGQYGFPNPEWSEVSEDAKQLIRLLLKTDPTERLTITQFMNHPWINQSMVVPQTPLHTARVLQEDKDHWDEVKEEMTSALATMRVDYDQVKIKDLKTSNNRLLNKRRKKQAGSSSASQGCNNQ
In the case of B8, the Km amounted to 30 µM in [5] and 18 µM in series [10].

B9: protein kinase B alpha (PKBα) (protein)
chain: MDFRSGSPSDNSGAEEMEVSLAKPKHRVTMNEFEYLKLLGKGTFGKVILVKEKATGRYYAMKILKKEVIVAKDEVAHTLTENRVLQNSRHPFLTALKYSFQTHDRLCFVMEYANGGELFFHLSRERVFSEDRARFYGAEIVSALDYLHSEKNVVYRDLKLENLMLDKDGHIKITDFGLCKEGIKDGATMKTFCGTPEYLAPEVLEDNDYGRAVDWWGLGVVMYEMMCGRLPFYNQDHEKLFELILMEEIRFPRTLGPEAKSLLSGLLKKDPKQRLGGGSEDAKEIMQHRFFAGIVWQHVYEKKLSPPFKPQVTSETDTRYFDEEFTAQMITITPPDQDDSMECVDSERRPHFPQFSYSASGTA
With B9, the values for the Km in series [3] and in series [9] were 2 µM and 4 µM, respectively.
